Source: patent publication US20230322957A1 (ENGMAB SARL, published 2023)

How the values were obtained:
Assay in all cases: cell-based or functional assay
[1] = target: T1, human BCMA on the cell surface (human, UniProt Q02223 1-184)
T1 sequence (looked up): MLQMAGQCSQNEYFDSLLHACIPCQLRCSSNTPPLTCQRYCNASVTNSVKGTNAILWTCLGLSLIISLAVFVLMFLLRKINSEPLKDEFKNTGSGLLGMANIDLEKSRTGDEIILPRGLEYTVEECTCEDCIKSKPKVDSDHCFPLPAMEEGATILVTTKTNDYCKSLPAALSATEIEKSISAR

[2] = target: T1, human BCMA on the cell surface; remark: listed apart in the source
[3] = target: T1, human BCMA on the cell surface; remark: listed apart in the source
[4] = target: T1, human BCMA on the cell surface; remark: listed apart in the source
[5] = target: T1, human BCMA on the cell surface; remark: listed apart in the source
[6] = target: T1, human BCMA on the cell surface; remark: listed apart in the source
[7] = target: T1, human BCMA on the cell surface; remark: listed apart in the source

B1: 83A10-TCBcv (bispecific antibody, human IgG1, kappa, L234A L235A)
heavy 1: not shown
heavy 2: not shown
light 1: not shown
light 2: EVQLLESGGGLVQPGGSLRLSCAASGFTFSTYAMNWVRQAPGKGLEWVSRIRSKYNNYATYYADSVKGRFTISRDDSKNTLYLQMNSLRAEDTAVYYCVRHGNFGNSYVSWFAYWGQGTLVTVSSASVAAPSVFIFPPSDEQLKSGTASVVCLLNNFYPREAKVQWKVDNALQSGNSQESVTEQDSKDSTYSLSSTLTLSKADYEKHKVYACEVTHQGLSSPVTKSFNRGEC
How did the “Annexin-V positive patient bone marrow myeloma plasma cells (%) at 10 pM” value [1] turn out when B1 was run?
Its value is 16.8%.

What about the “Annexin-V positive patient bone marrow myeloma plasma cells (%) at 100 pM” value [1] of the same binder?
Its value is 15.7%.

What about the “Annexin-V positive patient bone marrow myeloma plasma cells (%) at 1000 pM” value [1] of the same binder?
The value was 23.1%.

And the “Annexin-V positive patient bone marrow myeloma plasma cells (%) at 10000 pM” value [1]?
Its value is 30.9%.

And the “Annexin-V positive patient bone marrow myeloma plasma cells (%) at 30000 pM” value [1]?
Its value is 29.3%.

What about the “Lysis of JJN-3 cells (%) at 0.1 pM, Experiment 2” value [2] of the same binder?
The value was 22.3%.

And the “Lysis of JJN-3 cells (%) at 1 pM, Experiment 1” value [2]?
Its value is 24.4%.

What about the “Lysis of JJN-3 cells (%) at 1 pM, Experiment 2” value [2] of the same binder?
The value was -1.88%.

And the “Lysis of JJN-3 cells (%) at 10 pM, Experiment 1” value [2]?
Its value is 41.9%.

What about the “Lysis of JJN-3 cells (%) at 10 pM, Experiment 2” value [2] of the same binder?
The value was 39.6%.

And the “Lysis of JJN-3 cells (%) at 100 pM, Experiment 1” value [2]?
Its value is 18.4%.

What about the “Lysis of JJN-3 cells (%) at 100 pM, Experiment 2” value [2] of the same binder?
Its value is 20.1%.

What about the “Lysis of JJN-3 cells (%) at 1000 pM, Experiment 1” value [2] of the same binder?
Its value is 26.7%.

And the “Lysis of JJN-3 cells (%) at 1000 pM, Experiment 2” value [2]?
The value was 25.3%.

And the “Lysis of JJN-3 cells (%) at 10000 pM, Experiment 1” value [2]?
Its value is 70.3%.

And the “Lysis of JJN-3 cells (%) at 10000 pM, Experiment 2” value [2]?
The value was 51.2%.

What about the “EC50 redirected T-cell killing of L363 cells (LDH release), Donor 1” value [3] of the same binder?
The value was 16.8 pM.

What about the “EC50 redirected T-cell killing of L363 cells (LDH release), Donor 2” value [3] of the same binder?
The value was 47.8 pM.

What about the “EC50 redirected T-cell killing of L363 cells (LDH release), Donor 3” value [3] of the same binder?
Its value is 28.4 pM.

And the “EC50 redirected T-cell killing of L363 cells (LDH release), Donor 4” value [3]?
The value was 12.6 pM.

What about the “EC50 redirected T-cell killing of L363 cells (LDH release), Donor 5” value [3] of the same binder?
The value was 39 pM.

What about the “EC50 redirected T-cell killing of H929 cells (LDH release), Donor 1” value [4] of the same binder?
Its value is 3.9 pM.

And the “EC50 redirected T-cell killing of H929 cells (LDH release), Donor 3” value [4]?
The value was 8.5 pM.

What about the “EC50 redirected T-cell killing of H929 cells (LDH release), Donor 4” value [4] of the same binder?
Its value is 5 pM.

And the “EC50 redirected T-cell killing of H929 cells (LDH release), Donor 5” value [4]?
Its value is 4.3 pM.

What about the “EC50 redirected T-cell killing of H929 cells (LDH release), Donor 6” value [4] of the same binder?
Its value is 1.5 pM.

What about the “Annexin-V positive JJN-3 cells (%) at 0.1 pM, Experiment 2” value [5] of the same binder?
The value was 13.1%.

What about the “Annexin-V positive JJN-3 cells (%) at 1 pM, Experiment 1” value [5] of the same binder?
Its value is 11.4%.

What about the “Annexin-V positive JJN-3 cells (%) at 1 pM, Experiment 2” value [5] of the same binder?
The value was 14.3%.

And the “Annexin-V positive JJN-3 cells (%) at 10 pM, Experiment 1” value [5]?
The value was 11.1%.

What about the “Annexin-V positive JJN-3 cells (%) at 10 pM, Experiment 2” value [5] of the same binder?
The value was 15.9%.

What about the “Annexin-V positive JJN-3 cells (%) at 100 pM, Experiment 1” value [5] of the same binder?
Its value is 9.12%.

What about the “Annexin-V positive JJN-3 cells (%) at 100 pM, Experiment 2” value [5] of the same binder?
Its value is 16.5%.

And the “Annexin-V positive JJN-3 cells (%) at 1000 pM, Experiment 1” value [5]?
The value was 10.2%.

What about the “Annexin-V positive JJN-3 cells (%) at 1000 pM, Experiment 2” value [5] of the same binder?
The value was 17.5%.

And the “Annexin-V positive JJN-3 cells (%) at 10000 pM, Experiment 1” value [5]?
Its value is 16.8%.

What about the “Annexin-V positive JJN-3 cells (%) at 10000 pM, Experiment 2” value [5] of the same binder?
Its value is 22.9%.

And the “EC50 redirected T-cell killing of RPMI-8226 cells (LDH release), Donor 2” value [6]?
Its value is 620 pM.

What about the “EC50 redirected T-cell killing of RPMI-8226 cells (LDH release), Donor 3” value [6] of the same binder?
Its value is 229 pM.

What about the “EC50 redirected T-cell killing of RPMI-8226 cells (LDH release), Donor 4” value [6] of the same binder?
The value was 35 pM.

What about the “EC50 redirected T-cell killing of RPMI-8226 cells (LDH release), Donor 5” value [6] of the same binder?
The value was 64.9 pM.

What about the “Granzyme B secretion EC50, PBMC + RPMI-8226 cells (CBA)” value [7] of the same binder?
The value was 340 pM.

What about the “IL-10 secretion EC50, PBMC + RPMI-8226 cells (CBA)” value [7] of the same binder?
Its value is 300 pM.

And the “TNF-α secretion EC50, PBMC + RPMI-8226 cells (CBA)” value [7]?
The value was 520 pM.
